According to patent US20210246195A1 (CZ BIOHUB SF, published 2021):
Like-named read-outs stand apart in the source and are kept apart here.

Columns and labels:
BSA [1] = molecular target: T1, BSA (UniProt P02769 25-607); assay: indirect ELISA heat map, hIgG subtracted
T1 construct: also called bovine serum albumin; immobilized BSA

BSA [2] = molecular target: T1, BSA; assay: indirect ELISA heat map, hIgG subtracted; remark: listed apart in the source

T1 sequence (P02769 25-607 limits assumed): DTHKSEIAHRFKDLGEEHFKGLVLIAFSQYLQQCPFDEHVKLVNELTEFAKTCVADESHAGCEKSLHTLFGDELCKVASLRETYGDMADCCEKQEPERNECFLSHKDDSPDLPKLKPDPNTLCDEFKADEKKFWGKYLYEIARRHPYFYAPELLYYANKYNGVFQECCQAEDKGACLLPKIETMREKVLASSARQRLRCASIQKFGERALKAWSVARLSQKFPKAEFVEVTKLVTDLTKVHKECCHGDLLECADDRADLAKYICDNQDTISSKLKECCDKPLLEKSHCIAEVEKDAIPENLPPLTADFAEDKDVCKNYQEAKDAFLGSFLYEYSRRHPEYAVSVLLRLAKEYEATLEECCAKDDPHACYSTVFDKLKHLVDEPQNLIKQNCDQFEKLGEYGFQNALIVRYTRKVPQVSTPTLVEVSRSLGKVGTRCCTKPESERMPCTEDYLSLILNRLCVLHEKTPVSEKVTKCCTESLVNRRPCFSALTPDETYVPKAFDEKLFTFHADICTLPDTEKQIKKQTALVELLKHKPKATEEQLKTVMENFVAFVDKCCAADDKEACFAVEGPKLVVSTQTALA

Binder | binding result (BSA [1]) | binding result (BSA [2])
PA11P1D12 (antibody, human IgG1, V domains shown, human IgG1) VH: QVQLRVSGPGLVNPSETLSLTCIVSGDSLRDYYWSWIRQSPGKGLEWIGYVTESGGAHYNPSLESRVTISVDASKTQFSLNLKSVTAADTAVYYCARDAYSSTWYTVGWFDPWGPGSLVTVSS VL: EIVLTQSPATLSLSPGERATLSCRASQDVGVYLAWYQQKPGQAPRLIIYDASDRVSGVPARFTGSGSGTDFTLTITSLEPEDFAVYFCQQRTSGLTFGGGTTLEIK | no binding (tested: 2 ng/µL) | 
PA12P3E11 (antibody, human IgG1, V domains shown, human IgG1) VH: QVQLVESGGGLVTPGGSLRLSCTVSGFTLSDYYMSWIRQAPGKGLDWLSYISGSGDNKNYADSVRGRFTISRDNSKNSLYLQMNSLRAEDTAVYYCAREFPSGGYSPGVVLWGQGTLVTVSS VL: NFVLTQPHSVSESPGKTVTISCARSSGSIAGSFVQWYQQRPGSSPTTVIYEDTRRPSGVPDRFSGSIDSSSNSASLTISGLKTEDEADYYCQSYDSTNPWVFGGGTKLTVL | no binding (tested: 2 ng/µL) | 
PA11P1F03 (antibody, human IgG1, V domains shown, human IgG1) VH: QVQLQQWGAGLLKPSETLSLNCTVYHGSLSTSYWSWIRQPPGRGLEWIGEINDSGATNYNPSLKSRVIISVDTSKDQFSLKLTSVTAADTAMYYCARAPLLWVGESFFYYFDSWGQGILVTVSS VL: DIQMTQSPSSLSASVGDRVSITCRAGQSIDTYLNWYQHKPGKAPDLLIYTTSTLHSGVPSRFSGSGSGTDFTLTITSLQPEDFAIYYCQQSYKSPYTFGQGTKVEIK | no binding (tested: 2 ng/µL) | 
PA01P2C05 (antibody, V domains shown, subject PA01; also called Clone PA01P2C05) VH: QLLLQESGPGLVKPSETLSLSCTVSAGSITSINYSWGWIRQPPGKGLEWIASVYFSGSIYYNPSLKSRVAISVDTSKNTFSLNLTSVTAADTAVYYCARLRLDTGRDSSGLSYREHFDYWAQGTLVTVSS VL: DIQMTQSPSTLSASVGDRVTITCRASQSIGMWLAWFQQKPGKAPKLLIYKASTLESGVPSRFSGSGSGTEFTLTINSLQPDDFATYYCQQYNSYLFTFGPGTKVDIK |  | no binding (tested: 2 ng/µL)
PA11P1D11 (antibody, human IgG1, V domains shown, human IgG1) VH: QVELVESGGGVVQPGRSLRLSCVASGFTFSDYGMHWVRQAPGKGLEWVAVIWFDGSSKYYADSVKGRFTISRDDSKNTVFMQMNNVRVEDTAVYYCAREQWLGTEYFQNWGQGTLVTVSS VL: EIVMTQSPATLSLFPGERATLSCRASQSVAGNLAWYQQKPGQAPRLLIYEASTRATDIPARFSGSGSETEFTLTISSLQSEDFAVYYCQQYKKWLITFGQGTRLEIK | no binding (tested: 2 ng/µL) | 
PA12P3E04 (antibody, human IgG1, V domains shown, human IgG1) VH: EVKVVESGGGLVQPGGSLRLSCAASEFTFTYYWMSWIRQAPGKGLEWVANVNGDATEKYYVDSVKGRFTISRDNPKKTVYLQMNSLRVEDTAVYYCARVGTTVVNDGFDLWGLGTMVTVSS VL: SYVLTQSHSVSVAPGQTARITCGGENIGGKGVHWYQQKPGQAPLLVVSSDTGRRSVTPDRFSGSNSGDTATLIISRVEAGDEADYYCQVWDPTSEYVFGSGTKVTVL | no binding (tested: 2 ng/µL) | 
PA11P1E01 (antibody, human IgG1, V domains shown, human IgG1) VH: QVQLVQSGSELRRPGASVKVSCKTSGYAFTHFAMNWLRQAPGQGLEWLGWINTHSGNPTYAQGFTGRIVFSLDTSAGTAYLEISSLKAEDTAVYYCARERYFDFWGQGTLVAVSS VL: QSVLTQPPSASGTPGQRVTISCSGTNSNIGKNFLYWYQQLPGTAPKLLIFSSNQRPSGVPDRFSGSKSGTSASLAISGLRSEDEADYYCAAWDDNLSGWVFGGGTKVTVL | no binding (tested: 2 ng/µL) | 
PA11P1C11 (antibody, human IgG1, V domains shown, human IgG1) VH: QVQLVQSGSELRKPGASVKLSCRTSGYTFIHFAMNWLRQAPGQGLEWLGWINTHSGNPTYAQGFTGRFVFSLDVSAGTAYLEISGLKAEDTAVYYCARERYFDFWGQGALVAVSS VL: QSVLTQPPSASGTPGQRVTISCSGTSSNIGKNFLYWYQQVPGTAPKLLIYSSNQRPSGVPDRFSGSKSGTSASLAISGLRSEDEADYYCAAWDDSLSGWVFGGGTKVTVL | no binding (tested: 2 ng/µL) | 
PA01P2A12 (antibody, V domains shown, subject PA01; also called Clone PA01P2A12) VH: QVQLVQSGAEVKKPGASVMLSCKASGYIFTNSDINWVRQAPGQGPEWMGWMNPKSGNTGYEQKFQGRVTMTTNTSISTAYMELSRLRSEDTAVYYCARSTGAVAGNFDYWGQGTPVTVSS VL: EIVMTQSPATLSVSLGDRATLSCRASQSISRNLAWYQQKPGQAPRLLIYGASIRITDIPARFSGSGSGTEFTLTISSLQSEDFAIYFCQQYNNWRTFGQGTRVELK |  | no binding (tested: 2 ng/µL)
PA12P3C01 (antibody, human IgG1, V domains shown, human IgG1) VH: QVQLVQSGAEVKKPGASVKVSCQASGYTFTRYDINWVRQATGQGLEWMGWLNPKSGDTGYAQKFQGRVTMTRDTSISTAYMELTSLTSDDTAVYYCARGVDANHWGQGSLVTVSS VL: DIVVTQSPDSLAVSLGERATINCKSSQSIFDTSSNKNYLAWFRQRPGQPPQLLIYWASTRESGVPDRFSGSGSGTDFTLTISSLQAEDVAVYYCHQYYSLPHAFGQGTKLEIK | no binding (tested: 2 ng/µL) | 
PA11P1C03 (antibody, human IgG1, V domains shown, human IgG1) VH: EVQLVQSGGGLVKPGGSLRLSCAASGSTLTNYNINWVRQAPGKGLQWVSSISGTRDYTYYADSVVGRFTISRDNAKNSVYLQMNSLRAEDTAVYYCARGREVGGDYDSYDWGQGTLVTVSS VL: DIQMTQSPSSLSASVGDRVTITCQASQDISTFLHWYQQKPGKAPSVLIYGASDLKTGVPSRFSGSGSGTHFTLTISSLQPEDIATYYCQQYDHLPLTFGGGTKVEIK | no binding (tested: 2 ng/µL) | 
PA12P3E09 (antibody, human IgG1, V domains shown, human IgG1) VH: QVQLVQSGAEVKKPGSSVKVSCKASGGTFSSYSISWVRQAPGQGLEWMGGIIPIFGSGSYAQKFQGRVTITADKSTSTAYMELSSLSSDDTAVYYCARGESPSNFVYYGMDVWGQGTTVTVSS VL: DIVLTQSPLSLPVTPGEPASISCRSSHSLLHSNGYNHLDWYLQKPGQSPQLLIYLGSNRASGVPDRFSGSGSGTDFTLKISRVEAEDVGVYYCMQALLVTFGPGTKVDIK | no binding (tested: 2 ng/µL) | 
PA14P1D11 (antibody, human IgG1, V domains shown, subject PA14; also called Clone PA14P1D11) VH: EVQLLESGGGLVQPGGSLKLSCVASGFTFSSYAMMWVRQAPGKGLEWISSISSSGGSTYYADSVKGRFTISRDNSKNTLYLQMNSLRVEDTAVYYCAKSHCSTTSCPRAFYYYGMDVWGQGTTVTVSS VL: DIQMTQSPSSLSASVGDRVTITCRASQTITTYLNWYQQKPGKAPKLLIYAASSLQSGVPSRFSGSGSGTDFTLSLSSLQPEDSATYYCQQSYSTLGAFGGGTKVEIK | no binding (tested: 2 ng/µL) | 
PA01P2E06 (antibody, V domains shown, subject PA01; also called Clone PA01P2E06) VH: HVQLVQSGADVKKPGSSVKVSCKFSGGTFNNDSINWVRQAPGQGLEWMGVIMPFFGATRFAPKFQGRVTLTADKFTSTGYMELGSLKSDDTAVYYCARDKPPDDKWADYGMDVWGQGTTVTVSS VL: SYELTQPPSVSVSPGQTARITCSGDALPKQYVYWYQQKTGQAPVLVIYKDTERPSGIPERFSGSTSGTTVTLTISGVQADDEADYFCQSADRNANYRVFGGGTKLTVL |  | no binding (tested: 2 ng/µL)
PA11P1G10 (antibody, human IgG1, V domains shown, human IgG1) VH: QVQLQESGPGLVKPSQTLSLTCTVSGGSINTGAYYWSWIRQHPGKGLEWIGYIYYSGSTYYNPSLKSRVTISKDTSKNQFSLRLTSVTAADTAVYYCVREKLTGAPDNWGQGTLVAVSS VL: DIQMTQSPSSLSASVGDRVTITCRASQGVSNYLAWFHQKPGKAPKSLIYAASTLHDGVPSSFSGSGSGTEFTLTISDLQPEHFGTYYCEQYNSYPFTFGPGTTVDFK | no binding (tested: 2 ng/µL) | 
PA11P1C04 (antibody, human IgG1, V domains shown, human IgG1) VH: QVQLQESGPGLVKPSETLSLTCTVSGGSISSYYWNWIRQPPGKGLEWIGYIYYSGSTNYNPSLKSRATISVDTSKNQFSLKLSSVTAADTAVYYCARANLFGVALRRVLGPFDYWGQGTLVTVSS VL: DIQMTQSPSSLSASVGDRVTIACRASQSIANYLNWYQQKPGKAPKLLIYAASNLQSGVPSRFSGSGSGTDFTLTISSLQPEDFATYYCQQSYSTPYTFGQGTKLEIK | no binding (tested: 2 ng/µL) | 
PA12P4D02 (antibody, human IgG1, V domains shown, human IgG1) VH: QVQLVESGGGVVQPGRSLRLSCAASGFTFSSYAMHWVRQAPGKGREWVAALSYDGSSTYYADSVKGRLTISRDNSKNTLYLQMNSLRAEDTAVYFCTRVPYGEGRAANDYWGQGTLVTVSS VL: DIQMTQSPSTLSASVGDRVTITCRASQSIGSWLAWYQQKPGKAPKLLIYKASNIESGVPSRFSGSGSGTEFTLTISSLQPDDFATYYCQHYNTYSRSFGGGTEVAIK | no binding (tested: 2 ng/µL) | 
PA12P1D02 (antibody, human IgG1, V domains shown, human IgG1) VH: QLQLQQWGAGLVKPSETLSLTCTVSGGSLSGHFWSWIRQSPEKGLEWIGEINHSGRKNYNPSLMIRVDISIDTSKNQFSMRMTSLTAADSAVYYCARVGRNIVDTDDAFDVWGRGTLVTVSS VL: EIVLTQSPGTLSLSPGDTVTLSCRASQTIDSIYLAWYQQRPGQAPRLLIYGASTRATGTPDRFSGGGSGTDFTLTITRLEPEDFAVYFCQQYGTSPPITFGRGTRLEIK | no binding (tested: 2 ng/µL) | 
PA14P3H08 (antibody, human IgG1, V domains shown, human IgG1) VH: QVQLVESGGGVVQPGRSLTLSCAASGFNFKTYGMHWVRQAPGKGLEWVAVIYHDGNDKFYADSVKGRFTISRDNSKNTLYVQMSSLRADDTAIYYCAKGIFSSGYHYGMDVWGQGTAVIVSS VL: DIQMTQSPSSLSASLGDSVTITCLASQGIKEFLSWFQQKPGQAPKLLIYDASSSHSGVPSRFSGSGSATHFTLTISSLQPDDIATYYCQQYHQVPLTFGQGTRLEIK | no binding (tested: 2 ng/µL) | 
PA11P1G04 (antibody, human IgG1, V domains shown, human IgG1) VH: EVQLVESGGGLVQPGGSLRLSCAASGFTFSSYWMSWVRQAPGKGLEWVANIKQDGSEKDYVDSVKGRFTISRDNAKNSLYLQLNSLRAEDTAVYYCARERSTQSSSWYVSSYYSYYGMDVWGQGTTVTVSS VL: SSELTQDPAVSVALGQTVTITCQGDSLRSFYASWYQQKPGQAPVFVIYGKYNRPSGIPDRFSGSSSGNTASLTITGAQAEDEADYYCNSRDSSDNHLGVFGGGTKLTVL | no binding (tested: 2 ng/µL) | 
